Columns and labels:
[1] = target: allophycocyanin (AP) core cylinders of the Synechocystis phycobilisome
[2] = target: allophycocyanin (AP) core cylinders of the Synechocystis phycobilisome; remark: listed apart in the source
[3] = target: allophycocyanin (AP) core cylinders of the Synechocystis phycobilisome; remark: listed apart in the source
[4] = target: CpcA, α-subunit of phycocyanin (Synechocystis sp. PCC 6803); assay: densitometry of Zn-chromophore fluorescence bands of affinity-eluted proteins

(α,β)3CpcG1*IFN complex
Chl a fluorescence yield normalized to Chl, relative to Δcpc (relative to Δcpc (=1.0)) [1]: 1.55
kII of PSII photochemistry minus the kII of Δcpc, 620 nm actinic light, 12 µM DCMU [1]: 22.4 % of WT

(α,β*)3CpcG heterohexameric complex
Chl a fluorescence yield at 700 nm, normalized to [Chl], relative to Δcpc (relative to Δcpc (=1.00)) [2]: 1.74
rate constant kII of PSII photochemistry, 620 nm actinic light, DCMU-treated intact cells [3]: 1.57 fold of Δcpc

(α,β*IFN)3CpcG heterohexameric complex
Chl a fluorescence yield at 700 nm, normalized to [Chl], relative to Δcpc (relative to Δcpc (=1.00)) [2]: 1.84
rate constant kII of PSII photochemistry, 620 nm actinic light, DCMU-treated intact cells [3]: 1.46 fold of Δcpc

(α,β*TTFC)3CpcG1*IFN heterohexameric complex
Chl a fluorescence yield normalized to Chl, relative to Δcpc (relative to Δcpc (=1.0)) [1]: 1.45
kII of PSII photochemistry minus the kII of Δcpc, 620 nm actinic light, 12 µM DCMU [1]: 13.4 % of WT

(α,β*TTFC)3CpcG heterohexameric complex
Chl a fluorescence yield at 700 nm, normalized to [Chl], relative to Δcpc (relative to Δcpc (=1.00)) [2]: 1.66
rate constant kII of PSII photochemistry, 620 nm actinic light, DCMU-treated intact cells [3]: 1.39 fold of Δcpc

CpcB*S7*6xHis*tev*TTFC fusion protein
CpcB/CpcA Zn-chromophore fluorescence ratio in the eluted fraction [4]: 1.4

Source: patent US20240376174A1
